Consider 1 substance from paper PMC4128672.

The test deals with CDC42 (cell division cycle 42) (rat (endogenous in rat testis)) (UniProt Q8CFN2). The test can be described thus: proximity ligation; Duolink II in situ PLA on Bouin-fixed, paraffin-embedded rat testis sections; antigen retrieval in citrate buffer (10 mM, pH 6.0, 0.05% Tween 20); anti-ApoH goat polyclonal 2.5 ug/ml and anti-CDC42 rabbit polyclonal 5 ug/ml; probes anti-rabbit PLUS and anti-goat MINUS; controls with one primary antibody only.
UniProt Q8CFN2, sequence (Q8CFN2 whole entry): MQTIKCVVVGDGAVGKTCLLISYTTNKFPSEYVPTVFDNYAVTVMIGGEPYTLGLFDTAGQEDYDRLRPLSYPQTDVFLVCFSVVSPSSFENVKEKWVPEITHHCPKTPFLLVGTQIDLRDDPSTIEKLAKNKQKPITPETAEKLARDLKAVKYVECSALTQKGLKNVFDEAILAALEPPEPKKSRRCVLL

As for “APOH (apolipoprotein H) (from UniProt P26644 20-297) (natural protein)”, the PLA signals per 0.25 mm^2 (PLA signals/0.25 mm^2) was 312.
